Test: yeast display, Sf9 membrane polyspecificity reagent, FACS + sequencing; frameworks hold sequencing errors
Outline: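 Nanobodies came from a synthetic yeast display library in Saccharomyces cerevisiae BJ5465, induced with galactose for 36–48 hours and stained for 1 hour at 4 °C with 10% biotinylated, detergent-solubilized Sf9 membrane reagent. Cells were enriched on streptavidin microbeads and then FACS-sorted, with low and high (top ~1%) gates set on anti-HA fluorescence for expression and streptavidin fluorescence for reagent binding. Each polyreactivity label reflects the gate a clone came from. Genes were amplified by colony PCR, sequenced by MiSeq 2 × 250 and filtered by CDR length.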

| Sequence | polyreactivity (PSR sort gate) |
| --- | --- |
| QVQLVESGGGLVQAGGSLRLSCAASGSIFFLYAMGWYRQAPGKERELVAAISRDGRTNYADSVKGRFTISRDNAKNTVYLQMNSLKPEDTAVYYCAKDGNHPGAVVYGYWGQRTQVTVSS | low polyreactivity |
| QVQLVESGGGLVQAGGSLRLSCAASGSIFFLYAMGWYRQAPGKERELVASISRGDSTNYADSVKGRFTISRDNAKNTVYLQMNSLKPEDTAVYYCAAYRLYWPSTARRYDYWGQGTQVTVSS | low polyreactivity |
| QVQLVESGGGLVQAGGSLRLSCAASGSIFFLYGMGWYRQAPGKERELVAAIRKRGSSTYYADSVKGRFTISRDNAKNTVYLQMNSLKPEDTAVYYCAAAALGYYGYRGFDYWGQGTQVTVSS | low polyreactivity |
| QVQLVESGGGLVQAGGSLRLSCAASGSIFFPNAMGWYRQAPGKERELVAAITSTSTNYADSVKGRCTNSRDNAKNTVYLQLNSLKPEDTAVYYCAADGEFRRAWYEGDYWGQGTQVTVSS | low polyreactivity |
| QVQLVESGGGLVQAGGSLRLSCAASGSIFFPYAMGWYIQAPGKERELVAAITGSTGSTYYADSVKGRFTISRDNAKNTVYLQMNSLKPEDTAVYYCAAAEYFVSGGIMDYWGQGTQVTVSS | high polyreactivity |
| QVQLVESGGGLVQAGGSLRLSCAASGSIFFPYTMGWYRQAPGKERELVAAISERGGDTYYADSVKGRFTISRDNAKNTVYLQMNSLKPEDTAVYDCAAATSPISTSDYWGQGTQVTVSS | low polyreactivity |
| QVQLVESGGGLVQAGGSLRLSCAASGSIFFPYVMGWYRQAPGKERELVAAITYRAGSTYYADSVKGRFTISRDHAKNTFYLQMNSLKPEDTAVYYCNKEAAPLGFVTSYYGRDYWGQGTQVTVSS | low polyreactivity |
| QVQLVESGGGLVQAGGSLRLSCAASGSIFFQNAMGWYRQAPGKERELVATITSSVGSTYYADSVKGRFTISRDNAKNTVYFQMNSLKPEDTAVYYCNVRFFSAALWYTYFGYDYWGQGTQVTVSS | low polyreactivity |
| QVQLVESGGGLVQAGGSLRLSCAASGSIFFRNAMGWYRQAPGKERELVAAITSGGGTYYADSVKGRLTISRDNAKNTVYLQMNSLKPEDTAVYYCAVVRGSRAIKHYYWGQGTQVTVSS | high polyreactivity |
| QVQLVESGGGLVQAGGSLRLSCAASGSIFFRNVMGWYRQAPGKERELVAAISRSGSTNYADSVKGRFTISRDNAKNTVYLQMNSLKPEDTAVYYCAAQQWRRGRYRDTAGPMFAYDYWGQGTQVTVSS | low polyreactivity |
| QVQLVESGGGLVQAGGSLRLSCAASGSIFFSNAMGWYRQAPGKERELVAAITSTGGSTYYADSVKGRFTISRDNAKNTVYLQMNSLKPEDTAVYYCAAASRRGYYYWGQGTQVTVSS | high polyreactivity |
| QVQLVESGGGLVQAGGSLRLSCAASGSIFFSNVMGWYRQAPGKERELVAAITGRTGSTYYADSVKGRFTISRDNAKNTVYLQMNSLKPEDTAVYYCFSYWPRYWQSGNDYWGQGTQVTVSS | high polyreactivity |
| QVQLVESGGGLVQAGGSLRLSCAASGSIFFSYAMGWYRQAPGKEREGGSTDYADSVKGRFTISRDNAKNTVYLQMNSLKPEDTAVYYCAASVRGIRYDYWGQGTQVTVSS | low polyreactivity |
| QVQLVESGGGLVQAGGSLRLSCAASGSIFFSYAMGWYRQAPGKERELVAAIDYSGGGTYYADSVKGRFTISRDNAKNTVYLQMNSLKPEDTAVYYCNSDTEVWADTFISYRALNYWGQGTQVTVSS | low polyreactivity |
| QVQLVESGGGLVQAGGSLRLSCAASGSIFFSYAMGWYRQAPGKERELVAAISSGGSTYYADSVKGRFTISRDNAKNTVYLQMNSLKPEDTAVYYCAARGYRLVPVDFYYWGQGTQVTVSS | low polyreactivity |
| QVQLVESGGGLVQAGGSLRLSCAASGSIFFSYAMGWYRQAPGKERELVAAISTSGGNTYYADSVKGRFTISRDNAKNTVYVQMNSLKPEDTAVYYCNARGSYPPYRSYGYWGQCTQVTVSS | low polyreactivity |

| Sequence | polyreactivity (PSR sort gate) |
| --- | --- |
| QVQLVESGGGLVQAGGSLRLSCAASGSIFFSYVMGWYRQAPGKERELVADITYSGGSTFYADSVKGRFTISRDNAKNTVYLQMNSLKPEDTAVYYCAATWYSWGSEFDYWGQGTQVTVSS | high polyreactivity |
| QVQLVESGGGLVQAGGSLRLSCAASGSIFFTNTMGWYRKAPGKERELVAAITSGGSTNYADSVKGRFTISRDNAKNTVYLQMNSLKPEDTAVYYCAARYQPWLKYDFDSWGQGTQVTVSS | low polyreactivity |
| QVQLVESGGGLVQAGGSLRLSCAASGSIFFVYAMGWYRQAPGKERELVAAIDWDGGSTYYADSVKGRFTISRDNAKNTVYLQMNSLKPEDTAVYYCAADAWDLYSDGQEYNYWGQGTQVTVSS | high polyreactivity |
| QVQLVESGGGLVQAGGSLRLSCAASGSIFFWNAMGWYRQAPGKERELVAAISWSAGITYYADSVKGRFTISRDNAKNTVYVQMNSLKPEDTAVYYCARDQGWYTVYYDSYDYWGQGTLVTVSS | low polyreactivity |
| QVQLVESGGGLVQAGGSLRLSCAASGSIFFWNTMGWYRQAPGKVRELVAAITVSGGSTYYADSVKGRFTISRDNAKNTVYLQMNSLKPEDSAVYYCAADPYRRYGYDSYNYWGQGTQVTVSS | high polyreactivity |
| QVQLVESGGGLVQAGGSLRLSCAASGSIFFWYTMGWYRQAPGKERELVATISWSDGTTYYADSVKGRFTISRDKAKNTVYLQMNSLIPEDTAVYYCAAESYPSEVSSYVSEYDYWGQGTQVTVSS | low polyreactivity |
| QVQLVESGGGLVQAGGSLRLSCAASGSIFFYAMGWYRPAPGKERELVAAISWRGGSTYYADSVKGRFTISRDNAKNTVYLQMNSLKPEDTAVYYCAKATRRYDVYTYGYWGQGTQVTVSS | high polyreactivity |
| QVQLVESGGGLVQAGGSLRLSCAASGSIFFYAMGWYRQARGKERELVADITYTGGSKYADSVKGRFTISRDNAKNTVYLQMNSLKPEDTAVYYCAKLDGGLFDYWGQGTQVTVSS | low polyreactivity |
| QVQLVESGGGLVQAGGSLRLSCAASGSIFFYNAMAWYRQAPGKERELVAAINYNGGRTYYADSVKGRFTISRDNAKNTVYLQMNSMKQEDTAVYYCAARYGSGGDYWGQGTQVTVSS | low polyreactivity |
| QVQLVESGGGLVQAGGSLRLSCAASGSIFFYNAMGWYRQAPGKERELVAAITTRGGSTYYADSVKGRFTISRDNAKNTVYLQMNSLKPEATAVYYCARSSRGKLVYWGQGTQVTVSS | low polyreactivity |
| QVQLVESGGGLVQAGGSLRLSCAASGSIFFYYAMGWYRQAPGKDRELVAAITSSGDSTYYADSVKGRFTISRDNAKNTVYLQMNSLKPEDTAVYYCAALYIGYTGYYYWGQGTQVTVSS | low polyreactivity |
| QVQLVESGGGLVQAGGSLRLSCAASGSIFFYYAMGWYRQAPGKEREFVAGITYSGGITYYADSVKGRFTISRDNGKNTVYLQMNSLKPEDTAVYYCDYGGGVYQYGYWGQGPQVTVSS | low polyreactivity |
| QVQLVESGGGLVQAGGSLRLSCAASGSIFFYYAMGWYRQAPGKERELVADITSGGTTYYADSVKGRFTISRDNAKNTVYLQMNSQKPEDTAVYYCNAGLYPGQRPDYTNYSSYYWGQGTQVTVSS | low polyreactivity |
| QVQLVESGGGLVQAGGSLRLSCAASGSIFFYYAMGWYRQAPGKERELVASISTDGSTYADSVKGRFTISRDNAKNTVYLQMNSLKPEDTAVYYCNADTRGEYTYVSWYDYWGQGTQVTVSS | low polyreactivity |
| QVQLVESGGGLVQAGGSLRLSCAASGSIFGAIAMGWYRQAPGKERELVPAITSGGSTNYADSVKGRFTISRDNAKNTFYLQMNSLKPEDTAVYYCAARRRYAKFRYDYWGQGTQVTVSS | high polyreactivity |
| QVQLVESGGGLVQAGGSLRLSCAASGSIFGANTMGWYRQAPGKERELGAAISKRGGSTYYADSVKGRFTISRDNAKNTVYLQMNSLKPEDTAVYYCNATPRYLRQYVDPNWGYDYWGQGTQVTVSS | low polyreactivity |

From the nanobody polyreactivity screen of Harvey et al. (2022)
